Test results taken from patent US20110287017A1.

Target: membrane P-selectin coated in a flow chamber (low and high density) (UniProt P16109)
Assay: cell-based or functional assay

membrane P-selectin coated in a flow chamber (low and high density), sequence (P16109 42-830 limits assumed): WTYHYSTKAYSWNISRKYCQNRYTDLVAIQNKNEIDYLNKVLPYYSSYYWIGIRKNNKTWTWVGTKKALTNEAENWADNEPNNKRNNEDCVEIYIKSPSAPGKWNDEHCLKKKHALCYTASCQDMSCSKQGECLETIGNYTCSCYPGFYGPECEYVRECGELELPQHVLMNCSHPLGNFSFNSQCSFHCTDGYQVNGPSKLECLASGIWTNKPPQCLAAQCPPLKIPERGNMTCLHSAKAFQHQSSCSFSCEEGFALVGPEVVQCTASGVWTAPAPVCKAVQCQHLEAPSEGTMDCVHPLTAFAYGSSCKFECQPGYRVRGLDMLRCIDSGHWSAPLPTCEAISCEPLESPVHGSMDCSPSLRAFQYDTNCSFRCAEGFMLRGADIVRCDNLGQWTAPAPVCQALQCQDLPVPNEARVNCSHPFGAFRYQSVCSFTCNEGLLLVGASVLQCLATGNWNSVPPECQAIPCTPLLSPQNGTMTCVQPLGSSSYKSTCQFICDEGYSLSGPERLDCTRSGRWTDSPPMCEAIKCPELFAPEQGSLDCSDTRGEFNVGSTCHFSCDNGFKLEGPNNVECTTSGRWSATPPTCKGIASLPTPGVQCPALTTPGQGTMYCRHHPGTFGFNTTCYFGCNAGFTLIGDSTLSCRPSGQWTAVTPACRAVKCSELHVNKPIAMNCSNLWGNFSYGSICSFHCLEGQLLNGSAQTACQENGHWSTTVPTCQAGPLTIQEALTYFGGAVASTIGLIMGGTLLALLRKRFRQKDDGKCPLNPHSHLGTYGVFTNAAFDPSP

time to block rolling neutrophils on high density P-selectin: < 20 min
Substance: G3 mouse monoclonal anti-P-selectin antibody
